B1: 69A02 (bispecific TCE of Table 29) (bispecific antibody, V domains shown)
VH: QVTLKESGPTLVKPTQTLTLTCSFSGFSITTSGVSVGWIRQPPGKALEWLALIYWDDDKRYSPSLKSRLTITRDTSKNQVVLTMTNMDPVDTATYYCAHAPRYTPGGYFDYWGQGTLVTVSS
VL: ETTLTQSPATLSVSPGETATLSCRASQSVSSNLAWYQQKPGQAPRLLIYGASTRATGIPATFSGSGSGTEFTLTISSLQSEDFAIYYCQQYKNWPPAFGGGTELEIK
B2: 82H02 (bispecific TCE of Table 29) (bispecific antibody, V domains shown)
VH: EVQLLESGGGLVQPGGSLRLSCAASGFTFTSYAMSWVRQAPGKGLEWVSTISGSGGGTYYTDSVKGRFTISRDNSKNTLYLQMNSLRAEDTAVYYCAQGSSIFDYWGQGTLVTVSS
VL: EIVLTQSPATLSLSPGERATLSCRASQSVSSYLAWYQQKPGQAPRLLIYDASNRATGIPARFSGSGSGTDFTLTISSLEPEDFAVYYCQQRSNWPPCTFGQGTRLEIK
B3: 82H02 VL1.03 (bispecific TCE of Table 29) (bispecific antibody, V domains shown)
VH: EVQLLESGGGLVQPGGSLRLSCAASGFTFTSYAMSWVRQAPGKGLEWVSTISGSGGGTYYTDSVKGRFTISRDNSKNTLYLQMNSLRAEDTAVYYCAQGSSIFDYWGQGTLVTVSS
VL: EIVLTQSPATLSLSPGERATLSCRASQSVSSYLAWYQQKPGQAPRLLIYDASNRATGIPARFSGSGSGTDFTLTISSLEPEDFAVYYCQQRSNWPPQTFGQGTRLEIK
notes: also called 82H02 v1.03
B4: 82H02 VL1.02 (bispecific TCE of Table 29) (bispecific antibody, V domains shown)
VH: EVQLLESGGGLVQPGGSLRLSCAASGFTFTSYAMSWVRQAPGKGLEWVSTISGSGGGTYYTDSVKGRFTISRDNSKNTLYLQMNSLRAEDTAVYYCAQGSSIFDYWGQGTLVTVSS
VL: EIVLTQSPATLSLSPGERATLSCRASQSVSSYLAWYQQKPGQAPRLLIYDASNRATGIPARFSGSGSGTDFTLTISSLEPEDFAVYYCQQRSNWPPRTFGQGTRLEIK
notes: also called 82H02 v1.02
B5: Parental 1F3.5 (CD3-binding bispecific TCE of Table 30) (bispecific antibody, V domains shown)
VH: EVQLVESGGGLVQPGGSLRLSCAASGFTFNTYAMNWVRQAPGKGLEWVARIRSKYNNYATYYADSVKDRFTISRDDSKNTLYLQMNSLRAEDTAVYYCVRHGNFGNSYVSWFAYWGQGTMVTVSS
VL: QAVVTQEPSLTVSPGGTVTLTCRSSTGAVTTSNYANWVQQKPGQAPRGLIGGTNKRAPGTPARFSGSLLGGKAALTLSGVQPEDEAEYYCALWYSNLWVFGGGTKLTVLG
notes: also called IF3.5
B6: 1F3.5 VL1.00-VH1.05 (CD3-binding bispecific TCE of Table 30) (bispecific antibody, V domains shown)
VH: EVQLVESGGGLVQPGGSLKLSCAASGFTFNTYAMNWVRQASGKGLEWVGRIRSKYNNYATYYADSVKGRFTISRDDSKNTAYLQMNSLKTEDTAVYYCVRHGNFGNAYVSFAYWGQGTMVTVSS
VL: QAVVTQEPSLTVSPGGTVTLTCRSSTGAVTTSNYANWVQQKPGQAPRGLIGGTNKRAPGTPARFSGSLLGGKAALTLSGVQPEDEAEYYCALWYSNLWVFGGGTKLTVLG
notes: CD3 Fab arm only; VL1.00 read as the parental 1F3.5 light chain
B7: 1F3.5 VL1.01-VH1.00 (CD3-binding bispecific TCE of Table 30) (bispecific antibody, V domains shown)
VH: EVQLVESGGGLVQPGGSLRLSCAASGFTFNTYAMNWVRQAPGKGLEWVARIRSKYNNYATYYADSVKDRFTISRDDSKNTLYLQMNSLRAEDTAVYYCVRHGNFGNSYVSWFAYWGQGTMVTVSS
VL: QTVVTQEPSLTVSPGGTVTLTCASSTGAVTTSNYANWVQQKPGQAPRALIGGTNKRAPGTPARFSGSLLGGKAALTLSGVQPEDEAEYYCALWYSNLWVFGGGTKLTVLG
notes: CD3 Fab arm only; VH1.00 read as the parental 1F3.5 heavy chain
B8: 1F3.5 VL1.00-VH1.01 (CD3-binding bispecific TCE of Table 30) (bispecific antibody, V domains shown)
VH: EVQLVESGGGLVQPGGSLKLSCAASGFTFNTYAMNWVRQASGKGLEWVGRIRSKYNNYATYYADSVKGRFTISRDDSKNTLYLQMNSLKTEDTAVYYCVRHGNFGNSYVSWFAYWGQGTMVTVSS
VL: QAVVTQEPSLTVSPGGTVTLTCRSSTGAVTTSNYANWVQQKPGQAPRGLIGGTNKRAPGTPARFSGSLLGGKAALTLSGVQPEDEAEYYCALWYSNLWVFGGGTKLTVLG
notes: CD3 Fab arm only
B9: 1F3.5 VL1.00-VH1.03 (high) (CD3-binding bispecific TCE of Table 30) (bispecific antibody, V domains shown)
VH: EVQLVESGGGLVQPGGSLKLSCAASGFTFNTYAMNWVRQASGKGLEWVGRIRSKYNNYATYYADSVKGRFTISRDDSKNTLYLQMNSLKTEDTAVYYCVRHGNFGASYVSWFAYWGQGTMVTVSS
VL: QAVVTQEPSLTVSPGGTVTLTCRSSTGAVTTSNYANWVQQKPGQAPRGLIGGTNKRAPGTPARFSGSLLGGKAALTLSGVQPEDEAEYYCALWYSNLWVFGGGTKLTVLG
notes: CD3 Fab arm only; VL1.00 read as the parental 1F3.5 light chain; also called 1F3.5-VH1.03
B10: 1F3.5 VL1.00-VH1.02 (CD3-binding bispecific TCE of Table 30) (bispecific antibody, V domains shown)
VH: EVQLVESGGGLVQPGGSLKLSCAASGFTFNTYAMNWVRQASGKGLEWVGRIRSKYNNYATYYADSVKGRFTISRDDSKNTAYLQMNSLKTEDTAVYYCVRHGNFGNSYVSWFAYWGQGTMVTVSS
VL: QAVVTQEPSLTVSPGGTVTLTCRSSTGAVTTSNYANWVQQKPGQAPRGLIGGTNKRAPGTPARFSGSLLGGKAALTLSGVQPEDEAEYYCALWYSNLWVFGGGTKLTVLG
notes: as for B6
B11: 1F3.5 VL1.01-VH1.04 (CD3-binding bispecific TCE of Table 30) (bispecific antibody, V domains shown)
VH: EVQLVESGGGLVQPGGSLKLSCAASGFTFNTYAMNWVRQASGKGLEWVGRIRSKYNNYATYYADSVKGRFTISRDDSKNTLYLQMNSLKTEDTAVYYCVRHGNFGESYVSWFAYWGQGTMVTVSS
VL: QTVVTQEPSLTVSPGGTVTLTCASSTGAVTTSNYANWVQQKPGQAPRALIGGTNKRAPGTPARFSGSLLGGKAALTLSGVQPEDEAEYYCALWYSNLWVFGGGTKLTVLG
notes: CD3 Fab arm only
B12: 1F3.5 VL1.00-VH1.04 (CD3-binding bispecific TCE of Table 30) (bispecific antibody, V domains shown)
VH: EVQLVESGGGLVQPGGSLKLSCAASGFTFNTYAMNWVRQASGKGLEWVGRIRSKYNNYATYYADSVKGRFTISRDDSKNTLYLQMNSLKTEDTAVYYCVRHGNFGESYVSWFAYWGQGTMVTVSS
VL: QAVVTQEPSLTVSPGGTVTLTCRSSTGAVTTSNYANWVQQKPGQAPRGLIGGTNKRAPGTPARFSGSLLGGKAALTLSGVQPEDEAEYYCALWYSNLWVFGGGTKLTVLG
notes: as for B6
B13: 1F3.5 VL1.01-VH1.02 (CD3-binding bispecific TCE of Table 30) (bispecific antibody, V domains shown)
VH: EVQLVESGGGLVQPGGSLKLSCAASGFTFNTYAMNWVRQASGKGLEWVGRIRSKYNNYATYYADSVKGRFTISRDDSKNTAYLQMNSLKTEDTAVYYCVRHGNFGNSYVSWFAYWGQGTMVTVSS
VL: QTVVTQEPSLTVSPGGTVTLTCASSTGAVTTSNYANWVQQKPGQAPRALIGGTNKRAPGTPARFSGSLLGGKAALTLSGVQPEDEAEYYCALWYSNLWVFGGGTKLTVLG
notes: CD3 Fab arm only
B14: 1F3.5 VL1.01-VH1.01 (low) (CD3-binding bispecific TCE of Table 30) (bispecific antibody, V domains shown)
VH: EVQLVESGGGLVQPGGSLKLSCAASGFTFNTYAMNWVRQASGKGLEWVGRIRSKYNNYATYYADSVKGRFTISRDDSKNTLYLQMNSLKTEDTAVYYCVRHGNFGNSYVSWFAYWGQGTMVTVSS
VL: QTVVTQEPSLTVSPGGTVTLTCASSTGAVTTSNYANWVQQKPGQAPRALIGGTNKRAPGTPARFSGSLLGGKAALTLSGVQPEDEAEYYCALWYSNLWVFGGGTKLTVLG
notes: CD3 Fab arm only; also called 1F3.5-VH1.01-VL1.01
B15: 1F3.5 VL1.01-VH1.03 (CD3-binding bispecific TCE of Table 30) (bispecific antibody, V domains shown)
VH: EVQLVESGGGLVQPGGSLKLSCAASGFTFNTYAMNWVRQASGKGLEWVGRIRSKYNNYATYYADSVKGRFTISRDDSKNTLYLQMNSLKTEDTAVYYCVRHGNFGASYVSWFAYWGQGTMVTVSS
VL: QTVVTQEPSLTVSPGGTVTLTCASSTGAVTTSNYANWVQQKPGQAPRALIGGTNKRAPGTPARFSGSLLGGKAALTLSGVQPEDEAEYYCALWYSNLWVFGGGTKLTVLG
notes: CD3 Fab arm only
B16: 1F3.5 VL1.01-VH1.05 (CD3-binding bispecific TCE of Table 30) (bispecific antibody, V domains shown)
VH: EVQLVESGGGLVQPGGSLKLSCAASGFTFNTYAMNWVRQASGKGLEWVGRIRSKYNNYATYYADSVKGRFTISRDDSKNTAYLQMNSLKTEDTAVYYCVRHGNFGNAYVSFAYWGQGTMVTVSS
VL: QTVVTQEPSLTVSPGGTVTLTCASSTGAVTTSNYANWVQQKPGQAPRALIGGTNKRAPGTPARFSGSLLGGKAALTLSGVQPEDEAEYYCALWYSNLWVFGGGTKLTVLG
notes: CD3 Fab arm only

biological target: T1, recombinant human ROR1 extracellular domain protein (human, UniProt Q01973 30-406); assay: biolayer interferometry, TCE immobilized
T1 construct: also called Human/Cyno ROR1
From the text: (§1) This example describes biolayer interferometry experiments that were used to determine the binding affinities of bispecific TCEs and sequence optimized variants of the present disclosure.

First: B1
Second: B2
The Kd of the first is 1.5-fold lower: 3.5 nM for the first, 5.4 nM for the second. The first binds more tightly here.

First: B3
Second: B4
The Kd of the first is 3.9-fold higher: 475 nM for the first, 122 nM for the second. The second binds more tightly here.

biological target: T2, recombinant human CD3ε/δ heterodimer SEED Fc fusion protein (human, UniProt P07766 23-126; P04234 22-105); assay: biolayer interferometry, TCE immobilized
T2 construct: not shown: SEED Fc arm, not specified
From the text: as §1

T2 sequence (P07766 23-126, stated change not applied, chain 1 of 2): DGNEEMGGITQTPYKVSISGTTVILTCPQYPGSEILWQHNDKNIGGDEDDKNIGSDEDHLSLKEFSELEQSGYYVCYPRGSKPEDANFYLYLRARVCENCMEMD
T2 sequence (P04234 22-105, stated change not applied, chain 2 of 2): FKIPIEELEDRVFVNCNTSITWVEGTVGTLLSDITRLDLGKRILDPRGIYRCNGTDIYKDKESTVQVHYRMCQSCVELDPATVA

Going from B5 to B6, the Kd rises from 2.7 nM to 8.2 nM (3-fold).

First: B7
Second: B8
The Kd of the first is 21-fold higher: 62.3 nM for the first, 2.9 nM for the second. The second binds more tightly here.

B9 and B10 are within 1.5-fold of each other in Kd: 4.6 nM for the first, 5.5 nM for the second.

First: B11
Second: B12
The Kd of the first is 11-fold higher: 74.2 nM for the first, 6.5 nM for the second. The second binds more tightly here.

B13 and B14 are within 1.5-fold of each other in Kd: 47.1 nM for the first, 42 nM for the second.

B15 and B16 are within 1.5-fold of each other in Kd: 84.8 nM for the first, 59.2 nM for the second.

— patent US20240343800A1 (Merck KGaA, published 2024)
